Experiments:
[1] = test system: RAJI cells; experiment: JNG (Jurkat NFAT-GFP) cells expressing SAR: GFP induction on co-culture with RAJI; conditions: CD19 hu-mROO5-1 SIRs with deletion mutants of TCR constant chains; flow cytometry
[2] = test system: LNCaP-LucPPe cells; experiment: LNCaP-LucPPE xenograft in NSG mice, with rechallenge; type: in vivo; conditions: 1 × 10^6 LNCaP-LucPPe s.c., 17 days later 3 × 10^6 T cells i.v., male NSG mice

B1: 22651 (protein)
chain: MALPVTALLLPLALLLHAARPDIQMTQSPSSLSASVGDRVTITCKASDHINNWLAWYQQKPGQAPKLLIYGATTLETGVPSRFSGSGSGTDYTLTISSLQPEDFATYYCQQSWNTPWTFGQGTKLEIKRLEADVSPKPTIFLPSIAETKLQKAGTYLCLLEKFFPDVIKIHWQEKKSNTILGSQEGNTMKTNDTYMKFSWLTVPEKSLDKEHRCIVRHENNKNGVDQEIIFPPIKTDVITMDPKDNCSKDANDTLLLQLTNTSAYYMYLLLLLKSVVYFAIITCCLLRRTAFCCNGEKSRAKRSGSGATNFSLLKQAGDVEENPGPTSMDWIWRILFLVGAATGAHSFEQVQLQQPGAELVKPGASVKMSCKASGYAFSSYWINWMKQKPGQGLEWIGQIYPGDGDTNYNGKFKGRATLTADTSSSTAYMQLSSLTSEDSAVYFCARSITTVVGCAMDYWGQGTSVTVSSTRPHTKPSVFVMKNGTNVACLVKEFYPKDIRINLVSSKKITEFDPAIVISPSGKYNAVKLGKYEDSNSVTCSVQHDNKTVHSTDFEVKTDSTDHVKPKETENTKQPSKSCHKPKAIVHTEKVNMMSLTVLGLRMLFAKTVAVNFLLTAKLFFLRAKRSGSGVKQTLNFDLLKLAGDVESNPGPSRGHMTEYKPTVRLATRDDVPRAVRTLAAAFADYPATRHTVDPDRHIERVTELQELFLTRVGLDIGKVWVADDGAAVAVWTTPESVEAGAVFAEIGPRMAELSGSRLAAQQQMEGLLAPHRPKEPAWFLATVGVSPDHQGKGLGSAVVLPGVEAAERAGVPAFLETSAPRNLPFYERLGFTVTADVEVPEGPRTWCMTRKPGA
- Jurkat-NFAT ASSA Y: Raji [1]: significant residual activity

B2: 9970 (protein)
chain: MALPVTALLLPLALLLHAARPDIVMTQSHKFMSTSVGDRVSIICKASQDVGTAVDWYQQKPGQSPKLLIYWASTRHTGVPDRFTGSGSGTDFTLAITNVQSEDLADYFCQQYNSYPLTFGAGTKLEIKRLEDLKNVFPPEVAVFEPSEAEISHTQKATLVCLATGFYPDHVELSWWVNGKEVHSGVCTDPQPLKEQPALNDSRYCLSSRLRVSATFWQNPRNHFRCQVQFYGLSENDEWTQDRAKPVTQIVSAEAWGRADCGFTSESYQQGVLSATILYEILLGKATLYAVLVSALVLMAMVKRKDSRGRAKRSGSGATNFSLLKQAGDVEENPGPTSMDWIWRILFLVGAATGAHSFEEVQLVESGGGLVQPGGSLRLSCAASGYTFTEYTIHWVRQAPGKGLEWVANINPNNGGTTYNQKFEDRFTISRDNSKNTLYLQMNSLRAEDTAVYYCARGWNFDYWGQGTLVTVSSTRIQNPDPAVYQLRDSKSSDKSVCLFTDFDSQTNVSQSKDSDVYITDKCVLDMRSMDFKSNSAVAWSNKSDFACANAFNNSIIPEDTFFPSPESSCDVKLVEKSFETDTNLNFQNLSVIGFRILLLKVAGFNLLMTLRLWSS
modifications: Synthetic Polynucloetide
- tumor control (bioluminescence imaging, caliper tumor volume), LNCaP-LucPPE xenograft [2]: statistically significant and effective tumor control

B3: 22652 (protein)
chain: MALPVTALLLPLALLLHAARPDIQMTQSPSSLSASVGDRVTITCKASDHINNWLAWYQQKPGQAPKLLIYGATTLETGVPSRFSGSGSGTDYTLTISSLQPEDFATYYCQQSWNTPWTFGQGTKLEIKRLEVSPKPTIFLPSIAETKLQKAGTYLCLLEKFFPDVIKIHWQEKKSNTILGSQEGNTMKTNDTYMKFSWLTVPEKSLDKEHRCIVRHENNKNGVDQEIIFPPIKTDVITMDPKDNCSKDANDTLLLQLTNTSAYYMYLLLLLKSVVYFAIITCCLLRRTAFCCNGEKSRAKRSGSGATNFSLLKQAGDVEENPGPTSMDWIWRILFLVGAATGAHSFEQVQLQQPGAELVKPGASVKMSCKASGYAFSSYWINWMKQKPGQGLEWIGQIYPGDGDTNYNGKFKGRATLTADTSSSTAYMQLSSLTSEDSAVYFCARSITTVVGCAMDYWGQGTSVTVSSTRPHTKPSVFVMKNGTNVACLVKEFYPKDIRINLVSSKKITEFDPAIVISPSGKYNAVKLGKYEDSNSVTCSVQHDNKTVHSTDFEVKTDSTDHVKPKETENTKQPSKSCHKPKAIVHTEKVNMMSLTVLGLRMLFAKTVAVNFLLTAKLFFLRAKRSGSGVKQTLNFDLLKLAGDVESNPGPSRGHMTEYKPTVRLATRDDVPRAVRTLAAAFADYPATRHTVDPDRHIERVTELQELFLTRVGLDIGKVWVADDGAAVAVWTTPESVEAGAVFAEIGPRMAELSGSRLAAQQQMEGLLAPHRPKEPAWFLATVGVSPDHQGKGLGSAVVLPGVEAAERAGVPAFLETSAPRNLPFYERLGFTVTADVEVPEGPRTWCMTRKPGA
- Jurkat-NFAT ASSA Y: Raji [1]: significant residual activity

B4: 22641 (protein)
chain: MALPVTALLLPLALLLHAARPDIQMTQSPSSLSASVGDRVTITCKASDHINNWLAWYQQKPGQAPKLLIYGATTLETGVPSRFSGSGSGTDYTLTISSLQPEDFATYYCQQSWNTPWTFGQGTKLEIKRLEAEISHTQKATLVCLATGFYPDHVELSWWVNGKEVHSGVCTDPQPLKEQPALNDSRYCLSSRLRVSATFWQNPRNHFRCQVQFYGLSENDEWTQDRAKPVTQIVSAEAWGRADCGFTSESYQQGVLSATILYEILLGKATLYAVLVSALVLMAMVKRKDSRGRAKRSGSGATNFSLLKQAGDVEENPGPTSMDWIWRILFLVGAATGAHSFEQVQLQQPGAELVKPGASVKMSCKASGYAFSSYWINWMKQKPGQGLEWIGQIYPGDGDTNYNGKFKGRATLTADTSSSTAYMQLSSLTSEDSAVYFCARSITTVVGCAMDYWGQGTSVTVSSTRDKSVCLFTDFDSQTNVSQSKDSDVYITDKCVLDMRSMDFKSNSAVAWSNKSDFACANAFNNSIIPEDTFFPSPESSCDVKLVEKSFETDTNLNFQNLSVIGFRILLLKVAGFNLLMTLRLWSSRAKRSGSGVKQTLNFDLLKLAGDVESNPGPSRGHMTEYKPTVRLATRDDVPRAVRTLAAAFADYPATRHTVDPDRHIERVTELQELFLTRVGLDIGKVWVADDGAAVAVWTTPESVEAGAVFAEIGPRMAELSGSRLAAQQQMEGLLAPHRPKEPAWFLATVGVSPDHQGKGLGSAVVLPGVEAAERAGVPAFLETSAPRNLPFYERLGFTVTADVEVPEGPRTWCMTRKPGA
- Jurkat-NFAT ASSA Y: Raji [1]: significant GFP induction
